{"source": "the DeepSol protein solubility set"}
{"experiment": "soluble on expression in E. coli; label from the status in PepcDB or PDB records"}
{"sequence": "SMFEIKKICCIGAGYVGGPTCSVIAHMCPEIRVTVVDVNESRINAWNSPTLPIYEPGLKEVVESCRGKNLFFSTNIDDAIKEADLVFISVNTPTKTYGMGKGRAADLKYIEACARRIVQNSNGYKIVTEKSAVPVRAAESIRRIFDANTKPNLNLQVLSNPEFLAEGTAIKDLKNPDRVLIGGDETPEGQRAVQALCAVYEHWVPREKILTTNTWSSELSKLAANAFLAQRISSINSISALCEATGADVEEVATAIGMDQRIGNKFLKASVGFGGSCFQKDVLNLVYLCEALNLPEVARYWQQVIDMNDYQRRRFASRIIDSLFNTVTDKKIAILGFAFKKDTGDTRESSSIYISKYLMDEGAHLHIYDPKVPREQIVVDLSHPGVSEDDQVSRLVTISKDPYEACDGAHAVVICTEWDMFKELDYERIHKKMLKPAFIFDGRRVLDGLHNELQTIGFQIETIGKKV", "soluble on expression in E. coli": "soluble"}
{"sequence": "MAEANPRRGKMRFRRNAASFPGNLHLVLVLRPTSFLQRTFTDIGFWFSQEDFMPKLPVVMLSSVSDLLTYIDDKQLTPELGGTLQYCHSEWIIFRNAIENFALTVKEMAQMLQSFGTELAETELPDDIPSIEEILAIRAERYHLLKNDITAVTKEGKILLTNLEVPDTEGAVSSRLECHRQISGDWQTINKLLTQVHDMETAFDGFWEKHQLKMEQYLQLWKFEQDFQQLVTEVEFLLNQQAELADVTGTIAQVKQKIKKLENLDENSQELLSKAQFVILHGHKLAANHHYALDLICQRCNELRYLSDILVNEIKAKRIQLSRTFKMHKLLQQARQCCDEGECLLANQEIDKFQSKEDAQKALQDIENFLEMALPFINYEPETLQYEFDVILSPELKVQMKTIQLKLENIRSIFENQQAGFRNLADKHVRPIQFVVPTPENLVTSGTPFFSSKQGKKTWRQNQSNLKIEVVPDCQEKRSSGPSSSLDNGNSLDVLKNHVLNELIQTERVYVRELYTVLLGYRAEMDNPEMFDLMPPLLRNKKDILFGNMAEIYEFHNDIFLSSLENCAHAPERVGPCFLERKDDFQMYAKYCQNKPRSETIWRKYSECAFFQECQRKLKHRLRLDSYLLKPVQRITKYQLLLKELLKYSKDCEGSALLKKALDAMLDLLKSVNDSMHQIAINGYIGNLNELGKMIMQGGFSVWIGHKKGATKMKDLARFKPMQRHLFLYEKAIVFCKRRVESGEGSDRYPSYSFKHCWKMDEVGITEYVKGDNRKFEIWYGEKEEVYIVQASNVDVKMTWLKEIRNILLKQQELLTVKKRKQQDQLTERDKFQISLQQNDEKQQGAFISTEETELEHTSTVVEVCEAIASVQAEANTVWTEASQSAEISEEPAEWSSNYFYPTYDENEEENRPLMRPVSEMALLY", "soluble on expression in E. coli": "soluble"}
{"sequence": "MRGSHHHHHHGMASMRILLSNDDGVHAPGIQTLAKALREFADVQVVAPDRNRSGASNSLTLESSLRTFTFDNGDIAVQMGTPTDCVYLGVNALMRPRPDIVVSGINAGPNLGDDVIYSGTVAAAMEGRHLGFPALAVSLNGYQHYDTAAAVTCALLRGLSREPLRTGRILNVNVPDLPLAQVKGIRVTRCGSRHPADKVIPQEDPRGNTLYWIGPPGDKYDAGPDTDFAAVDEGYVSVTPLHVDLTAHSAHDVVSDWLDSVGVGTQW", "soluble on expression in E. coli": "soluble"}
{"sequence": "MGSDKIHHHHHHMTENKNEKLGWINGHWGVFKDLKVPINDRGLNFADGIFETILILNGIPQLLDEHLNRWEKSASILEMNSPPSKEWLISLVEDGINQAQLKNINGVIRINWTRGESEQRGIDISKTSLHSFWLEIDSYQPNFESISTIISQTERRNSFSRLSSCKTFSYNQGIQARIEAKNLGFNDALLLNSQGEICCATTANILVKRENNWLTPPSNSGCLPGIMRQRGIELNIIKEALIEATPKDNDEWFLINSLSCRPIQKINKKELKISTNPKEFWLSLLKI", "soluble on expression in E. coli": "not soluble"}
{"sequence": "MTVKQTVEVTNKLGMHARPAMKLFELMQGFDAEVLLRNDEGTEAEANSVIALLMLDSAKGRQIEIEATGPQEVEALAAVIALFNSGFDED", "soluble on expression in E. coli": "not soluble"}
{"sequence": "TDPDCDRIGVLVKNKSGEYKVLTGNQTGVLLTHYIISSLKDTGKLPANGAVIKTIVTSEMTRKITEDYDMKLIDVLTGFKYIGEKIKEFEETNSNTYLFGFEESYGCLAGTFVRDKDAVVAATLVCEMALYYKNKGLSLDDALNELYEKYGF", "soluble on expression in E. coli": "not soluble"}
{"sequence": "MHALHFSASDKAALYREVLPQIESVVADETDWVANLANTAAVLKEAFGWFWVGFYLVDTRSDELVLAPFQGPLACTRIPFGRGVCGQAWAKGGTVVVGDVDAHPDHIACSSLSRSEIVVPLFSDGRCIGVLDADSEHLAQFDETDALYLGELAKILEKRFEASRQAV", "soluble on expression in E. coli": "soluble"}
{"sequence": "MHIERLDFENSPYLGVFGVATDRVVLIREGLQEKKLEVIRETLKVPVIEVSVMKSRIIGTLATGNSNAIILPWYVWDAEIERIKKALSEYGIDMEVVPFRSKYTALGNLILTNDKAALVSAKFSRKEAQEIGEILGVEVERGVIAGLHAVGSAGVVTNKGGLVHPETSDEELEWLSDLFKVDVYVGTANMGVPYVGTCMLANSNGVVVGHLTTGPEIVKIEEALGFV", "soluble on expression in E. coli": "soluble"}
{"sequence": "MGHHHHHHSHMFPQAQESPAAVEVLTQVVHPSAAMASQERAQVAFKKMVQGVLQFAVCDTAAAGQLVKDGVTQVVVSEEGAVHMVAGEGAQIIMQEAQGEHMDLVESDGEISQIIVTEELVQAMVQESSGGFSEGTTHYILTELPPGVQGEPGLYSHTVLETADSQELLQAGATLGTEAGAPSRAEQLASVVIYTQEGSSAAAAIQSQRESSELQEA", "soluble on expression in E. coli": "not soluble"}
{"sequence": "MGHHHHHHSHMVSTATHSLSRLHTMLTGLRNAPSEKLEQILRTCSRDPTQAIANRLKEMFEIYSQHFQPDEDFSNCAKEIASKHFRFAEMLYYKVLESVIEQEQKRLGDMDLSGILEQDAFHRSLLACCLEVVTFSYKPPGNFPFITEIFDVPLYHFYKVIEVFIRAEDGLCREVVKHLNQIEEQILDHLAWKPES", "soluble on expression in E. coli": "not soluble"}
{"sequence": "MAGWVNPSFDREKLRSVIDSAERVLSERDKAREEAIRLARDVVRYSGWAVTAVHKGSLEEAEGHLARAEEAAGMLRSILEPYPDLMTAGFANNAFSEYVEARLFIDIITGRGLSSPDELRVPIVPYIQGLGDLVGELRRLSLELVRRGEFRKAWSLLDIMEAIYLELRSLDYPEALLPGVRHKADVARRLVDDTKAMLADLESRSQLEYRLKEVLKRLEA", "soluble on expression in E. coli": "soluble"}
{"sequence": "SFVKDFKPQALGDTNLFKPIKIGNNELLHRAVIPPLTRMRALHPGNIPNRDWAVEYYTQRAQRPGTMIITEGAFISPQAGGYDNAPGVWSEEQMVEWTKIFNAIHEKKSFVWVQLWVLGWAAFPDNLARDGLRYDSASDNVFMDAEQEAKAKKANNPQHSLTKDEIKQYIKEYVQAAKNSIAAGADGVEINSANGYLLNQFLDPHSNTRTDEYGGSIENRARFTLEVVDALVEAIGHEKVGLRLSPYGVFNSMSGGAETGIVAQYAYVAGELEKRAKAGKRLAFVHLVEPRVTNPFLTEGEGEYEGGSNDFVYSIWKGPVIRAGNFALHPEVVREEVKDKRTLIGYGRFFISNPDLVDRLEKGLPLNKYDRDTFYQMSAHGYIDYPTYEEALKLGWDKS", "soluble on expression in E. coli": "soluble"}
{"sequence": "KELKDSYVEYTLLYDMIANRIGIDEVVAENGTLRLMKNQVWAYDSLPHMLIAGGTGGGKTYFLLTIIEALLKSDAELFILDPKNADLADLGTVMPHVYSQKEEISACVEDFYERMIARSKAMKEMPNYKPGENYAYLGLPPNFLIFDEYVAYMGANRFPTS", "soluble on expression in E. coli": "not soluble"}
{"sequence": "MVNDLTPHFEDVQAHYDLSDDFFRLFLDPTQTYSCAHFEREDMTLEEAQIAKIDLALGKLGLQPGMTLLDIGCGWGATMRRAIAQYDVNVVGLTLSKNQAAHVQKSFDEMDTPRDRRVLLAGWEQFNEPVDRIVSIGAFEHFGHDRHADFFARAHKILPPDGVLLLHTITGLTRQQMVDHGLPLTLWLARFLKFIATEIFPGGQPPTIEMVEEQSAKTGFTLTRRQSLQPHYARTLDLWAEALQEHKSEAIAIQSEEVYERYMKYLTGCAKLFRVGYIDVNQFTLAK", "soluble on expression in E. coli": "soluble"}
{"sequence": "MGSDKIHHHHHHMINENQHMTEREPSTRRIKSMQTASEVLRELQSQSEATLSDLCGNIDVAKSTLHTYLQTLVAEGFIDKSDGVYRLGLRFIPLGESVRNRIDLYQLGKEEVKRLAEETNEWVHLTVAYRSREVTLYEHNGGETVAVDYQRRTRESPQYLHCTATGKALLAYFDDDRVTETVATEGLVQQTEQTITDPDELREELEEIRARGYAVNDEEEIRGMRSVGAPIQDVDGTVCGAISVTAPKTRLSGDYLYNDLPELVMEAANIIEINLESAAASGE", "soluble on expression in E. coli": "not soluble"}
{"sequence": "MGPAPRILELFYDVLSPYSWLGFEVLCRYQHLWNIKLQLRPTLIAGIMKDSGNQPPAMVPRKGQYIFKEIPLLKQFFQVPLNIPKDFFGETVKKGSINAMRFLTTVSMEQPEMLEKVSREIWMRVWSRDEDITEYQSILAAAVKAGMSTAQAQHFLEKISTQQVKNKLIENTDAACKYGAFGLPTTVAHVDGKTYMLFGSDRLELLAYLLGEKWMGPVPPTANARL", "soluble on expression in E. coli": "soluble"}
{"sequence": "YIGSGASQPNRTDVVWMVPSWTCKNEYSIDVEKYGILQNEDQHFVGGKQFAIFYEHSFGKIPYFKAQNESDPKNGGLPQMGDLEAHLIQAEKDINETIPDENFNGIAVIDIEEFRPMWELSWGPFSVYKTESIRLTRQQHPYWSTKQIEWQAERDYEKACQKFFIETLRLGKRLRPNAKWGYYLFPKCNGDVGQKSDTDCSTLFQKFNDNLHWLWGESTALFPSIYLYPSQKQNPEYNFVNSGALITETKRIKRNYCPSCEIHVFTKIEYNPYYTPDDFYSKQNLASTLDLAIKMNANSVVIWSTSQSIGSRCGSLQTYVDNTLGPYLQLTDRNLD", "soluble on expression in E. coli": "not soluble"}
{"sequence": "VLLKEGARGSAPSAPPPLAVPAFFPLEPLTVNLQSDDGVQHYLRVGLSLKLTDPKAQEYLTQHMPELRSRILLALSNKHPEQLATLEGKRALADELKTLIEQPTQPGNQSARVDDVLFTEFVVQ", "soluble on expression in E. coli": "not soluble"}
{"sequence": "MVGAYSYSEGLETLVENGTITSQSTLQQWLEAELSYGAIRLEAAVMVRAYQAATMDDMETLCYWNLWLSAARETQELRNSSWQMGRSLMQLLGKIQPEILPLANAVGNPCNYAIAFGIASAHWQINIQAALLAYLHSWATNLITAGVKLIPLGQTAGQELLLQLQPLISHATVEIMSLKDDELSCCSWGLSLASMQHETQYTRLFRSLEHHHHHH", "soluble on expression in E. coli": "not soluble"}
{"sequence": "SRVLMEQPGYAQMRKLILFQQYQFEPLFVRQKVGFDIDSVTQSTADALYITPSNQYPMGTTLNTEQRAQIIEWASNQEAWILEDDYDSEFQFAHRPYTSLQGLAAQMGRDERVLYIGSFSKVMFNGLRLGYLVVPESLVDKCLMVKDALSGDTPSHIQAAMADFISEGSLLRHIRKMRRVYKSKHEQVCFSIQHYFGDKVRVISQAAGLHVTLSWQQGIDENTWTQRAKKAGIVMRPVSFYEHPDFKARDWQGVVIGYGNVRLDNIDPLIKRLFELFDV", "soluble on expression in E. coli": "not soluble"}
{"sequence": "MKIVFLECSVELVPRSLWSHPQVLKSARRYGIEPGDLLLDKSLHYNAMAELPAKWKRGRPDILHVALLTTTDSPLYNEGLLRIYFQVYDGRLFEVGTGVRVPKNYERFRGLVAQLLKTERVPPGEGEALIRLHSRSLAEFVEREGRFILMWEKGSPTTTTYVAARALSTGLPIGVGCFPRGEFKRSTLRKASEAYSIMGGAPLKTWGVASRIVYALERLKSPFTLEHHHHHH", "soluble on expression in E. coli": "soluble"}
